T1: Cdc6-2 FL (Methanothermobacter thermautotrophicus, UniProt O27636 1-379)
T1 sequence: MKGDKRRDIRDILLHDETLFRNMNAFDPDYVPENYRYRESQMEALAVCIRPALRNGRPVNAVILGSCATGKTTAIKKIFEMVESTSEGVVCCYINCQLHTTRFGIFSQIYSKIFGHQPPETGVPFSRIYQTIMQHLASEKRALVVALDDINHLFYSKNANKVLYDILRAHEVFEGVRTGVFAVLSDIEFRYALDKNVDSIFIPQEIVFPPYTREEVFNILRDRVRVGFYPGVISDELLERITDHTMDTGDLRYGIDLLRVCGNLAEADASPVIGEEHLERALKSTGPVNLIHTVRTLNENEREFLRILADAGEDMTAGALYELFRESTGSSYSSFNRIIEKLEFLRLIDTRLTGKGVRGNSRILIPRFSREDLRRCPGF

T2: Cdc6-1 FL (Methanothermobacter thermautotrophicus, UniProt O27463 1-382)
T2 sequence: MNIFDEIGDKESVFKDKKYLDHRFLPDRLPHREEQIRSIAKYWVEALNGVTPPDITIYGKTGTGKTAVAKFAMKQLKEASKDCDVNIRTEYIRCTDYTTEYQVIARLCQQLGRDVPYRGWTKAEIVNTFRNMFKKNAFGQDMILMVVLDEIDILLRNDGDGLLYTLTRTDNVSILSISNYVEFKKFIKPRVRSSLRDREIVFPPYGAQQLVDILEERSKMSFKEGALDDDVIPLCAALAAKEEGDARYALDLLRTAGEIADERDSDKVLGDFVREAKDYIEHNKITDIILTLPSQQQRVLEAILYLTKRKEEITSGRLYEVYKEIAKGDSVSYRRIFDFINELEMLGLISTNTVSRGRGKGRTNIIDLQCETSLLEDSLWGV

T3: Cdc6-2 WH (Methanothermobacter thermautotrophicus, UniProt O27636 292-379)
T3 sequence: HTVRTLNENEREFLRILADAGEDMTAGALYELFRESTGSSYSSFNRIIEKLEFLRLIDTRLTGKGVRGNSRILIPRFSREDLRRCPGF

T4: Cdc6-1 WH (Methanothermobacter thermautotrophicus, UniProt O27463 287-382)
T4 sequence: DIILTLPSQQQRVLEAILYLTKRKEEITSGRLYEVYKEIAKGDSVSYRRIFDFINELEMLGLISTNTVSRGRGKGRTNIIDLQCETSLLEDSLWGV

B1: MR163/MR164 45 bp dsDNA (dsDNA)
DNA 1: TACATATGTACATGGGTACATATGTACATGGGTACATATGTACAT
DNA 2: ATGTACATATGTACCCATGTACATATGTACCCATGTACATATGTA

Experiments:
Test in all cases: filter binding
Cdc6-2 FL = target: T1, Cdc6-2 FL
Cdc6-1 FL = target: T2, Cdc6-1 FL
Cdc6-2 WH = target: T3, Cdc6-2 WH
Cdc6-1 WH = target: T4, Cdc6-1 WH

| Binder | binding result (Cdc6-2 FL) | binding result (Cdc6-1 FL) | binding result (Cdc6-2 WH) | binding result (Cdc6-1 WH) |
| --- | --- | --- | --- | --- |
| TACATATGTACATGGGTACATATGTACATGGGTACATATGTACAT (ssDNA) [MR163 45mer ssDNA] | binds | no binding | – | – |
| B1 | binds | – | no binding | no binding |
